Experimental data from patent publication US20260328755 (published 2026).

T1: TL1A (TNFSF15) (human, UniProt O95150)
T1 chain: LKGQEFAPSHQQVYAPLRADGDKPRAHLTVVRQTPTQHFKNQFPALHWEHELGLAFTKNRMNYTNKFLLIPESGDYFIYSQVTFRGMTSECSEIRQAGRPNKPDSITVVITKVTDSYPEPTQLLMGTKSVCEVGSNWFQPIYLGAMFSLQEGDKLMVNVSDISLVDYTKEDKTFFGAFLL


Molecular target: T1, TL1A (TNFSF15)
Assay: ELISA

EC50 [nM] | Binder
0.324 | heavy chain 512 antibody (S228P, L235E) (antibody) chain 1: not shown chain 2: EIVLTQSPGTLSLSPGERATLSCRASSSVSYMYWYQQKPGQAPRPLIYATSNLASGIPDRFSGSGSGTDFTLTISRLEPEDFAVYYCQQWEGNPRTFGGGTKLEIKRTVAAPSVFIFPPSDEQLKSGTASVVCLLNNFYPREAKVQWKVDNALQSGNSQESVTEQDSKDSTYSLSSTLTLSKADYEKHKVYACEVTHQGLSSPVTKSFNRGEC
0.252 | heavy chain 513 antibody (S228P, F234A, L235A) (antibody) chain 1: not shown chain 2: EIVLTQSPGTLSLSPGERATLSCRASSSVSYMYWYQQKPGQAPRPLIYATSNLASGIPDRFSGSGSGTDFTLTISRLEPEDFAVYYCQQWEGNPRTFGGGTKLEIKRTVAAPSVFIFPPSDEQLKSGTASVVCLLNNFYPREAKVQWKVDNALQSGNSQESVTEQDSKDSTYSLSSTLTLSKADYEKHKVYACEVTHQGLSSPVTKSFNRGEC
